Results from the supplement of paper PMC9112550, “Optimization of the antimicrobial peptide Bac7 by deep mutational scanning” (BMC Biology, 2022).

System: Escherichia coli TOP10
Assay: shrunken log2 fold change of peptide-encoding DNA abundance (4.5 h post-induction vs induction); higher = less antimicrobial activity (less host growth inhibition)
Details: time post-induction: 4.5 h; library: site-saturation at positions 5, 18, 19, 20
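Also: peptides expressed intracellularly from a pBAD plasmid library in pooled LB shake-flask culture, induced with 0.3% L-arabinose, DNA abundance read by NGS, three biological replicates, DESeq2 with apeglm shrinkage.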

Sequence	shrunken log2 fold change
RRIRPRPPRLPRPRPRPCNEPRP	-0.16
RRIRKRPPRLPRPRPRPMYSPRP	-0.11
RRIRWRPPRLPRPRPRPEFFPRP	0.54
RRIRWRPPRLPRPRPRPHNKPRP	-0.39
RRIRYRPPRLPRPRPRPISIPRP	-0.134
RRIRGRPPRLPRPRPRPIFHPRP	0.249
RRIRARPPRLPRPRPRPASNPRP	0.5
RRIRRRPPRLPRPRPRPRRHPRP	0.218
RRIRQRPPRLPRPRPRPRVDPRP	0.241
RRIRARPPRLPRPRPRPEILPRP	0.74
RRIRFRPPRLPRPRPRPCQAPRP	-0.0302
RRIRRRPPRLPRPRPRPTYLPRP	-0.348
RRIRHRPPRLPRPRPRPCENPRP	-0.0381
RRIRWRPPRLPRPRPRPWFFPRP	-0.0638
RRIRARPPRLPRPRPRPMSKPRP	0.16
RRIRTRPPRLPRPRPRPEPFPRP	0.0259
RRIRSRPPRLPRPRPRPKREPRP	0.393
RRIRGRPPRLPRPRPRPGHIPRP	0.299
RRIRWRPPRLPRPRPRPTQIPRP	0.132
RRIRQRPPRLPRPRPRPIIGPRP	-0.161
RRIRYRPPRLPRPRPRPFHAPRP	0.207
RRIRKRPPRLPRPRPRPNTEPRP	0.0416

Sequence	shrunken log2 fold change
RRIRWRPPRLPRPRPRPFKRPRP	0.0707
RRIRMRPPRLPRPRPRPFTEPRP	0.0426
RRIRTRPPRLPRPRPRPPNRPRP	0.135
RRIRKRPPRLPRPRPRPASIPRP	0.0215
RRIRMRPPRLPRPRPRPKIRPRP	-0.0101
RRIRMRPPRLPRPRPRPDKEPRP	-0.01
RRIRERPPRLPRPRPRPVRWPRP	0.635
RRIRVRPPRLPRPRPRPYTKPRP	-0.868
RRIRIRPPRLPRPRPRPWYHPRP	-0.351
RRIRKRPPRLPRPRPRPVTDPRP	-0.0127
RRIRERPPRLPRPRPRPESVPRP	-0.316
RRIRARPPRLPRPRPRPIRFPRP	0.247
RRIRARPPRLPRPRPRPIGGPRP	-0.0402
RRIRVRPPRLPRPRPRPLHQPRP	0.0791
RRIRIRPPRLPRPRPRPTAWPRP	0.152
RRIRYRPPRLPRPRPRPFQGPRP	0.0712
RRIRNRPPRLPRPRPRPQWWPRP	0.034
RRIRDRPPRLPRPRPRPYHCPRP	-0.00783
RRIRIRPPRLPRPRPRPERPPRP	0.285
RRIRTRPPRLPRPRPRPYPNPRP	-0.414
RRIRHRPPRLPRPRPRPEFAPRP	0.0409
RRIRCRPPRLPRPRPRPGYRPRP	-0.682

Sequence	shrunken log2 fold change
RRIRVRPPRLPRPRPRPPICPRP	-0.131
RRIRVRPPRLPRPRPRPMLPPRP	0.0351
RRIRFRPPRLPRPRPRPVWTPRP	-0.488
RRIRDRPPRLPRPRPRPPVPPRP	0.635
RRIRKRPPRLPRPRPRPFAIPRP	-0.00592
RRIRYRPPRLPRPRPRPRTLPRP	-0.537
RRIRHRPPRLPRPRPRPYSSPRP	-0.0579
RRIRLRPPRLPRPRPRPTCPPRP	0.0694
RRIRMRPPRLPRPRPRPFYEPRP	0.027
RRIRWRPPRLPRPRPRPWGIPRP	0.0114
RRIRPRPPRLPRPRPRPDHRPRP	-0.0495
RRIRSRPPRLPRPRPRPPHKPRP	0.173
RRIRDRPPRLPRPRPRPETLPRP	0.452
RRIRHRPPRLPRPRPRPRSDPRP	-0.123
RRIRFRPPRLPRPRPRPPRIPRP	0.232
RRIRKRPPRLPRPRPRPNCVPRP	0.109
RRIRERPPRLPRPRPRPNRKPRP	-0.0495
RRIRTRPPRLPRPRPRPPPDPRP	0.58
RRIRCRPPRLPRPRPRPFDYPRP	0.0472
RRIRTRPPRLPRPRPRPFDCPRP	-0.748
RRIRNRPPRLPRPRPRPPFPPRP	0.309
RRIRNRPPRLPRPRPRPKMNPRP	-0.381

Sequence	shrunken log2 fold change
RRIRHRPPRLPRPRPRPIKWPRP	0.126
RRIRKRPPRLPRPRPRPGWLPRP	0.593
RRIRIRPPRLPRPRPRPCSVPRP	-0.466
RRIRKRPPRLPRPRPRPDEAPRP	3.09
RRIRQRPPRLPRPRPRPVNKPRP	0.112
RRIRWRPPRLPRPRPRPRYPPRP	0.175
RRIRMRPPRLPRPRPRPPSCPRP	0.932
RRIRYRPPRLPRPRPRPTAKPRP	0.0338
RRIRFRPPRLPRPRPRPVEGPRP	-0.0615
RRIRTRPPRLPRPRPRPQNKPRP	-0.664
RRIRHRPPRLPRPRPRPVPWPRP	0.0803
RRIRKRPPRLPRPRPRPYYKPRP	-0.445
RRIRQRPPRLPRPRPRPMWTPRP	0.158
RRIRSRPPRLPRPRPRPAGEPRP	0.0686
RRIRMRPPRLPRPRPRPKKWPRP	0.962
RRIRKRPPRLPRPRPRPHYIPRP	-0.123
RRIRTRPPRLPRPRPRPHRFPRP	-0.0213
RRIRHRPPRLPRPRPRPVHLPRP	-0.0199
RRIRRRPPRLPRPRPRPCSQPRP	0.0499
RRIRERPPRLPRPRPRPNWHPRP	-0.185
RRIRIRPPRLPRPRPRPPMMPRP	0.568
RRIRPRPPRLPRPRPRPGYGPRP	0.0799

Sequence	shrunken log2 fold change
RRIRQRPPRLPRPRPRPGQPPRP	0.385
RRIRKRPPRLPRPRPRPVPPPRP	1.85
RRIRLRPPRLPRPRPRPMYCPRP	-0.0105
RRIRCRPPRLPRPRPRPKAHPRP	0.205
RRIRFRPPRLPRPRPRPGYPPRP	0.0384
RRIRWRPPRLPRPRPRPSIMPRP	-0.0893
RRIRKRPPRLPRPRPRPVPLPRP	0.185
RRIRIRPPRLPRPRPRPDMKPRP	-0.0106
RRIRCRPPRLPRPRPRPGFHPRP	-0.435
RRIRQRPPRLPRPRPRPEHHPRP	-0.136
RRIRDRPPRLPRPRPRPMLAPRP	0.607
RRIRTRPPRLPRPRPRPSAEPRP	0.363
RRIRMRPPRLPRPRPRPDVRPRP	0.111
RRIRARPPRLPRPRPRPTVWPRP	0.552
RRIRQRPPRLPRPRPRPTHTPRP	0.258
RRIRDRPPRLPRPRPRPCYYPRP	-0.0165
RRIRERPPRLPRPRPRPCANPRP	-0.158
RRIRRRPPRLPRPRPRPQREPRP	0.153
RRIRMRPPRLPRPRPRPDCQPRP	1.37
RRIRDRPPRLPRPRPRPKKQPRP	0.187
RRIRVRPPRLPRPRPRPIYIPRP	-0.755
